# Laboratory results published in US11312781B2, “Antigen binding molecules that bind LIGHT” (Capella Bioscience Ltd., priority 2018, dated 2022).
# Tests used:
# [1] = target: T1, soluble LIGHT amino acids 64-240 (Homo sapiens, UniProt O43557); test: BIAcore (SPR) binding to soluble LIGHT 64-240
# T1 construct: 64-240 LIGHT (Abcam, ab82123); purchased Abcam ab82123
# Method: (§1) Real-time binding interactions between captured antibody (chimeric anti-membrane LIGHT monoclonal antibody) captured on a biosensor matrix via goat anti-human Fc IgG and recombinant soluble LIGHT were measured by surface plasmon resonance (SPR) using the BIAcore system (GE Healthcare) according to manufacturer's instructions and standard procedures. Briefly, soluble LIGHT was diluted in HBS running buffer (GE Healthcare) and aliquots were injected through the immobilized protein matrices at a flow rate of […]. BIAevaluation software was used to calculate association rate (ka), dissociation rate (kd) and affinity (KD).
# (§2) The specificity of two lead anti-membrane LIGHT mAbs to soluble LIGHT was determined by BIAcore analysis and compared to the KD calculated from the EC50 values in Table 7 (results in Table 9). In brief, mAbs 3D12, 3B04 were compared to a mAb that binds both soluble and membrane LIGHT, F19, (F19 IgG4 mAb from EP2292663). An irrelevant anti-HEL mAb, 2A11, was used as a negative control. The mAbs were captured on an anti-human Fc mAb coated chip and soluble LIGHT was passed over the surface and the kinetic parameters were calculated using BIAcore 3000 software. The soluble LIGHT preparations used were amino acids 74-240 LIGHT (R&D Systems, 664-LI-025) and 64-240 LIGHT (Abcam, ab82123).
# [2] = system: wild type and mutated membrane LIGHT; test: Alanine scanning mutagenesis of membrane LIGHT and flow cytometry (HEK293FF cells); assay type: binding, human; conditions: single substitutions F57A to E86A and four amino acid substitutions 60-63 to 96-99
# Excerpt: (§3) The full length LIGHT gene was synthesized by GeneArt (ThermoFisher Scientific) and cloned into the mammalian expression vector pcDNA 3.1(+). The following Ala mutations were introduced into the LIGHT gene: 30 single amino acid alanine substitutions from F57A to E86A; 2 single amino acid alanine substitutions; G188A, R189A; one serine substitution, A190S; 17 single amino acid alanine substitutions; T191A to V207A and 10 four amino acid alanine substitutions, 60-63, 64-67, 68-71, 72-75, 76-79, 80-83, 84-87, 88-91, 92-95 and 96-99. Constructs were reconstituted according to manufacture instructions, using DEPC-treated and sterile filtered water. Competent TOP10 E. coli cells were transformed with 100 ng of each construct and a single colony from each construct was picked and used to inoculate 10 ml of LB/carb100/glu2% medium and grown overnight at 37° C., 200 rpm. The extraction of the construct DNA was performed using the Qiagen QIAprep Spin Miniprep Kit (250) and the concentration was determined by measuring the O.D. at 260 nm in a spectrophotometer.
# (§4) HEK293FF cells were cultured in Freestyle™293 expression medium (ThermoFisher scientific cat. no. 12338018) supplemented with 2 mM L-Glutamine. The day of transfection the cells were seeded in a 24-well plate at 0.6×10^6 cells/well. Lipofectamine 2000 (ThermoFisher scientific), 3 μl, was mixed with 50 μl OptiMEM medium (GIBCO) and then added to 50 μl Opti-MEM medium containing 3 ug plasmid DNA and incubated for 20 min at RT to form DNA-Lipofectamine 2000 complexes which were then added to the HEK293FF cells and incubated at 37° C., 5% CO2 for 24 hours. For each construct, in duplicate, 0.60×10^6 cells/well were used in a 96 well round bottom plate. Cells were centrifuged for 3 minutes at 300×g at 4° C., the supernatant discarded and the cells washed with 150 μl FACS buffer (0.5% FBS in phosphate buffered saline). This process was repeated 3 times. For each construct, […] cells/well were incubated with anti-LIGHT antibodies at the EC50 concentration and with positive controls of anti-LIGHT mAb MAB664 (R&D Systems), mAb F19 (EP2292663) or LTBR-Fc (R&D Systems), in a final volume of 50 μl/well for 30 min at 4° C., with shaking. The wells were washed 3 times as above and 50 μl/well of goat anti-human IgG FITC (1:1500 dilution in FACS buffer, SIGMA F9512-2ML) or goat anti-mouse APC (1/500 dilution in FACS buffer, BDBioscience 550826), as appropriate, was added to the wells and incubated for 30 min at 4° C. protected from the light, with shaking. The cells were then washed as above, resuspended in 100 μl of FACS buffer and binding of the antibodies to the constructs was measured using flow cytometry and a total of 10,000 cells were acquired for each sample. Controls of buffer and secondary antibody only as well as HEK293FF non transfected cells were also used.
# (§5) All of the mAbs of this invention show a similar profile in that their epitope is located at amino acids 188-197 of LIGHT. […] The epitope of the mAbs of this invention defined by alanine scanning mutagenesis are residues 188-197 of LIGHT. This is visually depicted in FIG. 8 utilising a 3D visualisation of the LIGHT trimer from the crystal structure of LIGHT from Liu et al. (Structure 22: 1252-62; 2014). This would result in the mAbs binding to the “tip” of the LIGHT trimer and explaining the 1:1 binding. The impact of this epitope would result in […] less dosing of mAb 3B04 being required to neutralise membrane LIGHT compared to, for example, mAbs F19 and F23 (of EP2292663) which bind both soluble and membrane LIGHT equally and bind LIGHT in the ratio 3:1.
# [3] = target: T2, soluble LIGHT amino acids 74-240 (Homo sapiens, UniProt O43557, K214E); test: BIAcore (SPR) binding to soluble LIGHT 74-240
# T2 construct: amino acids 74-240 LIGHT (R&D Systems, 664-LI-025); purchased R&D Systems 664-LI-025
# T2 sequence (O43557 74-240 K214E): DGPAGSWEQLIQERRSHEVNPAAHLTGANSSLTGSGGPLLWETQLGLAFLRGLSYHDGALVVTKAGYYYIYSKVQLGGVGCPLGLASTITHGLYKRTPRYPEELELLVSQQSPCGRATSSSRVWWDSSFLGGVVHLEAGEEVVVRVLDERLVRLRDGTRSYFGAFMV
# Method: as §1, §2
# [4] = target: T3, wild type and mutated membrane LIGHT (Homo sapiens, UniProt O43557, V196A); test: Alanine scanning mutagenesis of membrane LIGHT and flow cytometry (HEK293FF cells); assay type: binding; conditions: aa mutation V196A, SEQ ID NO. 143
# T3 construct: The full length LIGHT gene was synthesized by GeneArt (ThermoFisher Scientific); expressed in transfected cells; host or cells: HEK293FF, transient, pcDNA 3.1(+)
# T3 sequence (O43557 whole entry V196A): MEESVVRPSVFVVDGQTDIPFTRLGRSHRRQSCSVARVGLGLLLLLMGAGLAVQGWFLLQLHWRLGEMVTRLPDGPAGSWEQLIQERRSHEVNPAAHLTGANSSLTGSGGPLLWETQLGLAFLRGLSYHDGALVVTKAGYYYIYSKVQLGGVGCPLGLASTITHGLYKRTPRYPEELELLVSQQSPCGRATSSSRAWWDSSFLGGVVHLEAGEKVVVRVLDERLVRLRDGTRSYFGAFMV
# Excerpt: as §3, §4, §5
# [5] = target: T4, wild type and mutated membrane LIGHT (Homo sapiens, UniProt O43557, T191A); test: as above; assay type: binding; conditions: aa mutation T191A, SEQ ID NO. 138
# T4 construct: The full length LIGHT gene was synthesized by GeneArt (ThermoFisher Scientific); expressed in transfected cells; host or cells: HEK293FF, transient, pcDNA 3.1(+)
# T4 sequence (O43557 whole entry T191A): as the sequence (O43557 whole entry V196A) above, with T191A, A196V counted along it
# Excerpt: as §3, §4, §5
# [6] = target: T5, wild type and mutated membrane LIGHT (Homo sapiens, UniProt O43557, W198A); test: as above; assay type: binding; conditions: aa mutation W198A, SEQ ID NO. 145
# T5 construct: The full length LIGHT gene was synthesized by GeneArt (ThermoFisher Scientific); expressed in transfected cells; host or cells: HEK293FF, transient, pcDNA 3.1(+)
# T5 sequence (O43557 whole entry W198A): as the sequence (O43557 whole entry V196A) above, with A196V, W198A counted along it
# Excerpt: as §3, §4, §5
# T1 sequence (O43557 64-240): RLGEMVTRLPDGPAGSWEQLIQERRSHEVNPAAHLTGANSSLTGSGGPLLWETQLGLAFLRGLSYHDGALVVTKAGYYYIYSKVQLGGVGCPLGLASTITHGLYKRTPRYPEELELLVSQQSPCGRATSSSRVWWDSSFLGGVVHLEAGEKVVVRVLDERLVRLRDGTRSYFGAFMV
Molecule,64-240 LIGHT Ka [1] [M⁻¹ s⁻¹],64-240 LIGHT Kd [1] [s⁻¹],Binding to LIGHT alanine substitution constructs versus WT LIGHT [2],74-240 LIGHT Ka [3] [M⁻¹ s⁻¹],74-240 LIGHT Kd [3] [s⁻¹],Binding to membrane LIGHT construct as a percentage of the WT binding [4] [%],Binding to membrane LIGHT construct as a percentage of the WT binding [5] [%],Binding to membrane LIGHT construct as a percentage of the WT binding [6] [%]
"3B04: parental mouse anti-membrane LIGHT antibody, VL SEQ ID NO 1, VH SEQ ID NO 5; tested as chimeric human IgG4 mAb (antibody, listed as Homo sapiens, V domains shown) VH: QVQLQQPGAELVRPGASVTLSCKASGYTFTDYEMHWVKQTPVHGLEWIGEIDPETGDTAYSQKFKGKATLTADKSSSTAYMEFRSLTSEDSAVYYCSRETDYFFDYWGQGTTLTVSS VL: DIQMTQTPASLSASVGETVTITCGASENIYGALNWYQRKQGKSPQLLIYGATNLADGMSSRFSGSGSGRQYSLKISSLHPDDFATYYCQNVLTTPWTFGGGTKLEIKR",251000,0.00345,no difference in binding,222000,0.00348,–,–,–
"3D12: parental mouse anti-membrane LIGHT antibody, VL SEQ ID NO 41, VH SEQ ID NO 45; tested as chimeric human IgG4 mAb (antibody, listed as Homo sapiens, V domains shown) VH: QVQLQQPGAELVRPGASVTLSCKASDYTFTDSEIHWVKQTPVHGLEWIGEIDPETGGTAYNQKFKGKATLTADKSSSTAYMELRSLTSEDSAVYYCSRETDYFFDYWGQGTTLTVSS VL: DIQMTQSPASLSASVGETVTITCGASENIYGALNWYQRKQGKSPQLLIYGATNLADGMSSRFSGSGSGRQYSLKISSLHPDDVATYYCQNVLSTPWTFGGGTKLEIKR",219000,0.00234,no difference in binding,168000,–,78,3,86
